# Data taken from IntAct's records for PubMed 19829382.
# B1: Scaffold protein ILK (Mus musculus), O55222 (parent)
# chain: MDDIFTQCREGNAVAVRLWLDNTENDLNQGDDHGFSPLHWACREGRSAVVEMLIMRGARINVMNRGDDTPLHLAASHGHRDIVQKLLQYKADINAVNEHGNVPLHYACFWGQDQVAEDLVANGALVSICNKYGEMPVDKAKAPLRELLRERAEKMGQNLNRIPYKDTFWKGTTRTRPRNGTLNKHSGIDFKQLNFLAKLNENHSGELWKGRWQGNDIVVKVLKVRDWSTRKSRDFNEECPRLRIFSHPNVLPVLGACQAPPAPHPTLITHWMPYGSLYNVLHEGTNFVVDQSQAVKFALDMARGMAFLHTLEPLIPRHALNSRSVMIDEDMTARISMADVKFSFQCPGRMYAPAWVAPEALQKKPEDTNRRSADMWSFAVLLWELVTREVPFADLSNMEIGMKVALEGLRPTIPPGISPHVCKLMKICMNEDPAKRPKFDMIVPILEKMQDK
# partner: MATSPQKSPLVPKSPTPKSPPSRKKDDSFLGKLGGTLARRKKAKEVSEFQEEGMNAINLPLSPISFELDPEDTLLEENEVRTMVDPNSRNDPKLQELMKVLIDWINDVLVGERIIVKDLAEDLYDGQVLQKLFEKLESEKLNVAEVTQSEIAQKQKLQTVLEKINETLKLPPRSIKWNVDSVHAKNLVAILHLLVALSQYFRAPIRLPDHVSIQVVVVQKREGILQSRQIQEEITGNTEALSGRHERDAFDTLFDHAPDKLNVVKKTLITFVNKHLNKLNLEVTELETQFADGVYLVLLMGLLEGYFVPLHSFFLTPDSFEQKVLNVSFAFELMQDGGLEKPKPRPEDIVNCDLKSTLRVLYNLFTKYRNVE
# Variants of: B1
# Details: with parva_mouse Parva
row,effect of a mutation on the interaction,Variant
1,decreasing interaction strength,K220A
2,decreasing interaction strength,K220M
